According to article PMC2665219 (Nucleic Acids Research, 2009):

B1: b-C50 (dsDNA)
DNA 1: TTGTAATGAGTAGTGCATTTGCAATGGAGAGATTTTGGGGAGTTGTTTAAAATTACATTTGCGTTTTGTTAAAACACAACAGCTGAATGTATCAAAATTATATATTTAAATCTTTGAAATATTGC
DNA 2: GCAATATTTCAAAGATTTAAATATATAATTTTGATACATTCAGCTGTTGTGTTTTAACAAAACGCAAATGTAATTTTAAACAACTCCCCAAAATCTCTCCATTGCAAATGCACTACTCATTACAA
B2: b-C20 (dsDNA)
DNA 1: TTGTAATGAGTAGTGCATTTGCAATGGAGAGATTTTGGGGAGTTGTTTAAAATTACATTTGCGTTTTGTTAAAACACAACAGCTGAATGTAAAAAAATTATATATTTAAATCTTTGAAATATTGC
DNA 2: GCAATATTTCAAAGATTTAAATATATAATTTTTTTACATTCAGCTGTTGTGTTTTAACAAAACGCAAATGTAATTTTAAACAACTCCCCAAAATCTCTCCATTGCAAATGCACTACTCATTACAA
B3: EbfC K16A mutant (natural protein, Borrelia burgdorferi strain B31, UniProt O51418 1-99, looked up)
chain: MAVNPLDFLKNMSSVANNIDNIKKEISKITVCGKAGSNIVTIEMDGEFNVKKVSINKEFFDDLDNDAFEQMIKSALNDAVSKVKEEIKLKTMGVLPFGM
B4: EbfC E85A mutant (natural protein, Borrelia burgdorferi strain B31, UniProt O51418 1-99, looked up)
chain: MAVNPLDFLKNMSSVKNNIDNIKKEISKITVCGKAGSNIVTIEMDGEFNVKKVSINKEFFDDLDNDAFEQMIKSALNDAVSKVKAEIKLKTMGVLPFGM
B5: EbfC K23A mutant (natural protein, Borrelia burgdorferi strain B31, UniProt O51418 1-99, looked up)
chain: MAVNPLDFLKNMSSVKNNIDNIAKEISKITVCGKAGSNIVTIEMDGEFNVKKVSINKEFFDDLDNDAFEQMIKSALNDAVSKVKEEIKLKTMGVLPFGM
B6: EbfC K84A mutant (natural protein, Borrelia burgdorferi strain B31, UniProt O51418 1-99, looked up)
chain: MAVNPLDFLKNMSSVKNNIDNIKKEISKITVCGKAGSNIVTIEMDGEFNVKKVSINKEFFDDLDNDAFEQMIKSALNDAVSKVAEEIKLKTMGVLPFGM
B7: EbfC D78A mutant (natural protein, Borrelia burgdorferi strain B31, UniProt O51418 1-99, looked up)
chain: MAVNPLDFLKNMSSVKNNIDNIKKEISKITVCGKAGSNIVTIEMDGEFNVKKVSINKEFFDDLDNDAFEQMIKSALNAAVSKVKEEIKLKTMGVLPFGM
B8: EbfC D20A mutant (natural protein, Borrelia burgdorferi strain B31, UniProt O51418 1-99, looked up)
chain: MAVNPLDFLKNMSSVKNNIANIKKEISKITVCGKAGSNIVTIEMDGEFNVKKVSINKEFFDDLDNDAFEQMIKSALNDAVSKVKEEIKLKTMGVLPFGM
B9: EbfC K88A mutant (natural protein, Borrelia burgdorferi strain B31, UniProt O51418 1-99, looked up)
chain: MAVNPLDFLKNMSSVKNNIDNIKKEISKITVCGKAGSNIVTIEMDGEFNVKKVSINKEFFDDLDNDAFEQMIKSALNDAVSKVKEEIALKTMGVLPFGM
B10: EbfC K82A mutant (natural protein, Borrelia burgdorferi strain B31, UniProt O51418 1-99, looked up)
chain: MAVNPLDFLKNMSSVKNNIDNIKKEISKITVCGKAGSNIVTIEMDGEFNVKKVSINKEFFDDLDNDAFEQMIKSALNDAVSAVKEEIKLKTMGVLPFGM
B11: b-C30 (dsDNA)
DNA 1: TTGTAATGAGTAGTGCATTTGCAATGGAGAGATTTTGGGGAGTTGTTTAAAATTACATTTGCGTTTTGTTAAAACACAACAGCTGAATGTAACTAAATTATATATTTAAATCTTTGAAATATTGC
DNA 2: GCAATATTTCAAAGATTTAAATATATAATTTAGTTACATTCAGCTGTTGTGTTTTAACAAAACGCAAATGTAATTTTAAACAACTCCCCAAAATCTCTCCATTGCAAATGCACTACTCATTACAA
B12: b-C40 (dsDNA)
DNA 1: TTGTAATGAGTAGTGCATTTGCAATGGAGAGATTTTGGGGAGTTGTTTAAAATTACATTTGCGTTTTGTTAAAACACAACAGCTGAATGTGACAAAATTATATATTTAAATCTTTGAAATATTGC
DNA 2: GCAATATTTCAAAGATTTAAATATATAATTTTGTCACATTCAGCTGTTGTGTTTTAACAAAACGCAAATGTAATTTTAAACAACTCCCCAAAATCTCTCCATTGCAAATGCACTACTCATTACAA
B13: b-C1/2+3 (dsDNA)
DNA 1: TTGTAATGAGTAGTGCATTTGCAATGGAGAGATTTTGGGGAGTTGTTTAAAATTACATTTGCGTTTTGTTACAACACAACAGCTGAACACAACAAAATTATATATTTAAATCTTTGAAATATTGC
DNA 2: GCAATATTTCAAAGATTTAAATATATAATTTTGTTGTGTTCAGCTGTTGTGTTGTAACAAAACGCAAATGTAATTTTAAACAACTCCCCAAAATCTCTCCATTGCAAATGCACTACTCATTACAA
B14: b-C2+3 (dsDNA)
DNA 1: TTGTAATGAGTAGTGCATTTGCAATGGAGAGATTTTGGGGAGTTGTTTAAAATTACATTTGCGTTTTGTTACAACACAACAGCTGAATGTAACAAAATTATATATTTAAATCTTTGAAATATTGC
DNA 2: GCAATATTTCAAAGATTTAAATATATAATTTTGTTACATTCAGCTGTTGTGTTGTAACAAAACGCAAATGTAATTTTAAACAACTCCCCAAAATCTCTCCATTGCAAATGCACTACTCATTACAA

biological target: T1, EbfC (Borrelia burgdorferi, UniProt O51418 1-99); experiment: EMSA
T1 sequence: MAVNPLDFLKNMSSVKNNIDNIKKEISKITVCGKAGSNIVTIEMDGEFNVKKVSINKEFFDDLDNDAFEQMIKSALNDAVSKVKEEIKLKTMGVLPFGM

Row | Binder | binding result
1 | B1 | no binding
2 | B2 | no binding

Biological target: the molecule itself
Experiment: SEC

Row | Binder | stoichiometry N
3 | B3 | 2
4 | B4 | 2
5 | B5 | 2
6 | B6 | 2
7 | B7 | 2
8 | B8 | 2
9 | B9 | 2
10 | B10 | 2

biological target: T1, EbfC; experiment: EMSA; remark: another data set of the same source

Row | Binder | binding result
11 | B11 | binds
12 | B12 | binds

biological target: T1, EbfC; experiment: EMSA; remark: another data set of the same source

Row | Binder | binding result
13 | B13 | binds
14 | B14 | binds
